Reference: the supplement of paper PMC9170038

Tested on: MS2 coat protein
Assay: apparent KD of MS2 coat protein; designed switch direction (-1 OFF switch, 1 ON switch): 1; higher = weaker reporter binding
In short: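 An oligonucleotide input, 200 uM small-molecule ligand, or no input was present during titration of SNAP-549-labelled MS2 coat protein, which was doubled from 0.7 or 1.5 nM to 3 µM. Designed RNA switches had been transcribed on Illumina chips by stalled E. coli RNA polymerase. Apparent KD per design is the median over clusters of curves fitted to normalised cluster fluorescence.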

[1] = Eterna round: R95, input ligand: FMN 200 uM
[2] = Eterna round: R95, input ligand: microRNA oligo, concentration not stated
[3] = Eterna round: R95, input ligand: none
[4] = input ligand: microRNA oligo, concentration not stated

GGUUUAGUCAAGCGCAGUUGCACUUGAAAACAUGAGGAUCACCCAUGUUUGGGACAAGCUUUGCUCCUCGUCUUUCC [Dicebior] (puzzle: Sensor for hsa-mir-208a)
apparent KD of MS2 coat protein [1]: 194 nM
apparent KD of MS2 coat protein [2]: 78.2 nM
apparent KD of MS2 coat protein [3]: 386 nM

GUGGUCAGACAUGAGGAUCACCCAUGUGGAAUAAAUAAGGGUUAGGAUAUGGAAUAUAGGAUAUACCAGAAGGGAUGGUUGGUG (Eterna round: R96, puzzle: Same State NG 3)
apparent KD of MS2 coat protein (input ligand: FMN 200 uM): 123 nM
apparent KD of MS2 coat protein [4]: 108 nM
apparent KD of MS2 coat protein (input ligand: none): 111 nM

GUAGCAUGCAGCGAGGAUAUUCAUAUUAAAACAUGAGGAUCACCCAUGUAGGCCAAAAGGCCUUGGGAGAAGGCGCACAUGCUAC [Xeonanis - 20] (puzzle: Same State 2)
apparent KD of MS2 coat protein [1]: 31.2 nM
apparent KD of MS2 coat protein [2]: 527 nM
apparent KD of MS2 coat protein [3]: 717 nM

AAAAAACAUGAGGAUCACCCAUGUCAAAAGACAUGAGGAUAUGUACAGACUUCGGUCUGUACAGAAGGCAUGAAAA [salish99_ss1_r3_093] (puzzle: Same State 1)
apparent KD of MS2 coat protein [1]: 32.2 nM
apparent KD of MS2 coat protein [2]: 570 nM
apparent KD of MS2 coat protein [3]: 528 nM

GCUCGACUGAUGGCCUACAUGAGGAUCACCCAUGUGAUUGGGCAGGAUAUCUAGAUGCAGGAUGUAGAGAAGGGCCGGUCGAGC [SameState NG3 #46] (Eterna round: R96, puzzle: Same State NG 3)
apparent KD of MS2 coat protein (input ligand: FMN 200 uM): 472 nM
apparent KD of MS2 coat protein [4]: 501 nM
apparent KD of MS2 coat protein (input ligand: none): 475 nM

AUUUUUAAUGCAGGAUAUGAUUAACAUGAGGAUCACCCAUGUGGUGUUGUGAGUAAGGAGAGUGAUCAGAAGGGCAUUUUUUCA [SS-NG2-LRO01] (Eterna round: R96, puzzle: Same State NG 2)
apparent KD of MS2 coat protein (input ligand: FMN 200 uM): 838 nM
apparent KD of MS2 coat protein [4]: 495 nM
apparent KD of MS2 coat protein (input ligand: none): 533 nM

AGCUAAAACGAAGGAUAUACAAACAUGAGGAUCACCCAUGUAUACAUGAUUUAUUGUGAUCACAUGUAGAAGGUCGUACUAACA [SameState NG2 #19] (Eterna round: R96, puzzle: Same State NG 2)
apparent KD of MS2 coat protein [4]: 633 nM

UACCUACCAGGAGGAUAUACAAACCCGAAAGGAGUAGAAGGCCUGAGUACUAACAUGAGGAUCACCCAUGUAGCGCCAGUUCGC [Eternabot solution 10] (Eterna round: R96, puzzle: Same State NG 1)
apparent KD of MS2 coat protein (input ligand: FMN 200 uM): 18.2 nM
apparent KD of MS2 coat protein [4]: 15.1 nM
apparent KD of MS2 coat protein (input ligand: none): 17.4 nM

GUGGUCUGACAUGAGGAUCACCCAUGUGGAAUAAAUACGGGUUAGGAUAUCUUGAGGAUCACCCAAGAGAAGGGAUGGAUUGUU (Eterna round: R96, puzzle: Same State NG 3)
apparent KD of MS2 coat protein (input ligand: FMN 200 uM): 83.9 nM
apparent KD of MS2 coat protein [4]: 54.7 nM
apparent KD of MS2 coat protein (input ligand: none): 80.8 nM

GUUACAUGAGGAUCACCCAUGUAUGUGUGGGAGUAAGUGUCUUAGGAUAUCUAUUAUUUGAAUUAAGAGAAGGAAGAUUGUUGU [JMF's solution 21] (Eterna round: R96, puzzle: Same State NG 3)
apparent KD of MS2 coat protein (input ligand: FMN 200 uM): 128 nM
apparent KD of MS2 coat protein [4]: 69.8 nM
apparent KD of MS2 coat protein (input ligand: none): 103 nM

GGAAAGAGGUAAGGAUAUGCAUGGCUGGGACAUGAGGAUCACCCAUGUAAUAGAAGAAAUCUAGGGUAGAAGGUACAAGGAAGG [AK SSNG2-V2-9] (Eterna round: R96, puzzle: Same State NG 2)
apparent KD of MS2 coat protein (input ligand: FMN 200 uM): 1110 nM
apparent KD of MS2 coat protein [4]: 367 nM
apparent KD of MS2 coat protein (input ligand: none): 450 nM

GUUACAUGAGGAUCACCCAUGUAUGUGUGGGAGUAAGUGUCUUAGGAUAUCUAUGAUUUAAUUUUAGAGAAGGAAGAUUGUUGU [JMF's solution 86] (Eterna round: R96, puzzle: Same State NG 3)
apparent KD of MS2 coat protein (input ligand: FMN 200 uM): 112 nM
apparent KD of MS2 coat protein [4]: 70.9 nM
apparent KD of MS2 coat protein (input ligand: none): 90.8 nM

GUGGAGGGUUGAGGAUAUUGAAUACAUAUGUUUAACAUGAGGAUCACCCAUGUGGGUUGCGGUAUCGAGAAGGUAAGUUGCUGG [salish99_SSNG2_r04_038] (Eterna round: R96, puzzle: Same State NG 2)
apparent KD of MS2 coat protein (input ligand: FMN 200 uM): 105 nM
apparent KD of MS2 coat protein [4]: 94.2 nM
apparent KD of MS2 coat protein (input ligand: none): 89.3 nM

AUUAGUUGCGGGCAGGAUAUGUAUUAAAAUACAUGAGGAUCACCCAUGUGCGGGUAUAACACCCGACAGAAGGGCCAAUCGCGAC [Mat - Same State 2 - Mod of UCT - D93] (puzzle: Same State 2)
apparent KD of MS2 coat protein [1]: 25.4 nM
apparent KD of MS2 coat protein [2]: 250 nM
apparent KD of MS2 coat protein [3]: 409 nM

AGAGCCGGCACCGAGGAUAUUCAUAUUAAAACAUGAGGAUCACCCAUGUAGGCCAGAAGGCCUUGGGAGAAGGCGGAUCGGCUCG [Xeonanis - 7] (puzzle: Same State 2)
apparent KD of MS2 coat protein [1]: 28.3 nM
apparent KD of MS2 coat protein [2]: 524 nM
apparent KD of MS2 coat protein [3]: 827 nM

GGUAUUGACACAGGAUAUGCUUACGAAACGUAAGCAGAAGGGUGAACAUGAGGAUCACCCAUGUAUGUACCAGGGCGUGAGCCC [JL SSNG1 1.74] (Eterna round: R96, puzzle: Same State NG 1)
apparent KD of MS2 coat protein (input ligand: FMN 200 uM): 169 nM
apparent KD of MS2 coat protein [4]: 875 nM
apparent KD of MS2 coat protein (input ligand: none): 1880 nM

GGUAGGUUACUACCAUACAUGAGGAUCACCCAUGUAAAUGGGAAGGAUAUGGUACCUAUUUGGUACCAGAAGGUCCAAUUAAUU [JL Fiskers NG3ss - 2 mod 3] (Eterna round: R96, puzzle: Same State NG 3)
apparent KD of MS2 coat protein (input ligand: FMN 200 uM): 148 nM
apparent KD of MS2 coat protein [4]: 446 nM
apparent KD of MS2 coat protein (input ligand: none): 706 nM

CGUCCGGCCUGAGCUGGACGGUAGCAUGUACAUGAGGAUCACCCAUGUUCAUGUGCAGGCUUUUUGCUCGUCUUGUG [salish99_mir208a_modof_jandersonlee_003] (puzzle: Sensor for hsa-mir-208a)
apparent KD of MS2 coat protein [1]: 42.3 nM
apparent KD of MS2 coat protein [2]: 10.6 nM
apparent KD of MS2 coat protein [3]: 44.9 nM

CCGAUGUAUGGAGGAUAUGGAGCCUUAUUGGCUCCAGAAGGCUAAUAACAUGAGGAUCACCCAUGUCGGCGGUCUAAUGACCGA [Eli NG1ss - 55] (Eterna round: R96, puzzle: Same State NG 1)
apparent KD of MS2 coat protein (input ligand: FMN 200 uM): 48.2 nM
apparent KD of MS2 coat protein [4]: 49.3 nM
apparent KD of MS2 coat protein (input ligand: none): 112 nM

GUAGCAUACCGAGGAUAUUCAUAAUACAUGAGGAUCACCCAUGUAAGGCCACAUUAGUGGCCUUGGGAGAAGGCGGAAUGCUAC [Xeonanis - 20 Mod43] (Eterna round: R96, puzzle: Same State NG 2)
apparent KD of MS2 coat protein (input ligand: FMN 200 uM): 13.7 nM
apparent KD of MS2 coat protein [4]: 35.7 nM
apparent KD of MS2 coat protein (input ligand: none): 44 nM

UUCUCAUUUACAUGAGGAUCACCCAUGUUUUUAUGUCAGAGAUAGGAUAUAGUUCUCUCGUUUUUCUAGAAGGAUCUUUUUAUU [JR_SSNG3_Sub086] (Eterna round: R96, puzzle: Same State NG 3)
apparent KD of MS2 coat protein (input ligand: FMN 200 uM): 65.9 nM
apparent KD of MS2 coat protein [4]: 41.3 nM
apparent KD of MS2 coat protein (input ligand: none): 64.6 nM

CUGAGCAAUCUAGGAUAUCACGUCGUUUAGACGUGAGAAGGAGAUCAUAACAUGAGGAUCACCCAUGUAUUACAUGAAGCUCAG [SSNG1/7-A3] (Eterna round: R96, puzzle: Same State NG 1)
apparent KD of MS2 coat protein (input ligand: FMN 200 uM): 13.1 nM
apparent KD of MS2 coat protein [4]: 15.7 nM
apparent KD of MS2 coat protein (input ligand: none): 18.8 nM

ACCCGCAGCCGUCAGGAUAUGUUCGCGUCAACAUGAGGAUCACCCAUGUGUGACAAGAAGUACACGCAGAAGGGAUCAAUGCGGG [Bienri] (Eterna round: R96, puzzle: Same State 2)
apparent KD of MS2 coat protein (input ligand: FMN 200 uM): 13.4 nM
apparent KD of MS2 coat protein [4]: 11.7 nM
apparent KD of MS2 coat protein (input ligand: none): 17.8 nM

AGGACGAGCACAGGAUAUCCGUGGAACAGACACGGAGAAGGGUGAAGUCAUGGAAAGAAAAGACAUGAGGAUCACCCAUGUAAA [Eszaonin] (Eterna round: R96, puzzle: Same State NG 1)
apparent KD of MS2 coat protein (input ligand: FMN 200 uM): 132 nM
apparent KD of MS2 coat protein [4]: 61.3 nM
apparent KD of MS2 coat protein (input ligand: none): 310 nM

AGUCCAGCCUGAGCUGGACAAAAGCAUGUACAUGAGGAUCACCCAUGUUCAUGUACAAGCUUUUUGCUCGUUUUAAA [Zipper 52 - 8] (puzzle: Sensor for hsa-mir-208a)
apparent KD of MS2 coat protein [1]: 523 nM
apparent KD of MS2 coat protein [2]: 13.5 nM
apparent KD of MS2 coat protein [3]: 546 nM

UUUAGGAACGGGCAGGAUAUGUAUUAAAAUACAUGAGGAUCACCCAUGUGCGGGUAUAACACCCGACAGAAGGGCCAAUCGUUCC [Laonerce - 9] (puzzle: Same State 2)
apparent KD of MS2 coat protein [1]: 22.7 nM
apparent KD of MS2 coat protein [2]: 170 nM
apparent KD of MS2 coat protein [3]: 231 nM

CAGCUCGUGUGAGGAUAUGCCGCCGUUUCGGCUGCAGAAGGUGCUACGUUACAUGAGGAUCACCCAUGUCUCUGUUGUUUCGUU [salish99_SSNG1_r04_950] (Eterna round: R96, puzzle: Same State NG 1)
apparent KD of MS2 coat protein [4]: 18.2 nM

AAAAAACAUGAGGAUCACCCAUGUCAAAAGACAUGAGGAUAUGUACAGACUUCGGUCUGUACAGAAGGCAUGAAAA [SS1 - 1011] (Eterna round: R96, puzzle: Same State 1)
apparent KD of MS2 coat protein [4]: 359 nM
